Entries after “also recorded” stand apart in the source; their conditions may differ. Like-named read-outs stand apart in the source and are kept apart here. A value given as a limit tells only on which side of the number the result lay.

Data set [1] has as its system HECA-452-reactive glycans. Put plainly: Flow cytometry of cell surface HECA-452-reactive sialofucosylated glycans on myeloid cells. The data set is classed as cell-based, human. As to the method:
(§1) Flow cytometry. Cell surface expression of E-selectin ligands and MPO was determined by indirect single-color immunostaining with HECA-452 and anti-MPO (2C7) mAbs, respectively. Cells were incubated with primary antibodies and their matched isotype controls in PBS with 2% FBS for 20 min, on ice. After successive washes with PBS and 2% FBS cells were stained with FITC-conjugated secondary antibody for HECA-452 and PE-conjugated secondary antibody for MPO. Stained cells were then washed, resuspended in PBS, and analyzed using the Cytomics FC 500 MPL flow cytometer (Beckman Coulter, Miami, Fla.).
(§2) In vitro G-CSF treatment. Myeloid cells (10^6 cells/ml), isolated from different sources were cultured with RPMI 1640 medium (Mediatech, Inc, Manassas, Va.) with 10% FBS, 1% pen/strep and 10 ng/ml recombinant human G-CSF (Neupogen) from Amgen Mfg. Ltd., CA. Cells were maintained in culture for 72 h, at 37° C. and G-CSF aliquots were added after each 24 h period.
(§3) Neuraminidase and DMJ treatment. Cells were isolated from the buffy coat of bone marrow aspirates after centrifugal sedimentation and red blood cell lysis. […] After extensive washes, cells were divided in equal numbers and cultured in RPMI 1640 medium, for 48 h, with or without G-CSF treatment. In parallel, a subset of cells cultured with G-CSF was treated with 1 mM deoxymannojirimycin (DMJ). The effect(s) of G-CSF and DMJ were assessed by flow cytometry analysis of surface expression of HECA-452 determinants and of MPO.
(A flow cytometer gives signals particle by particle.)

The next data set has as its system membrane MPO. Put plainly: Flow cytometry of cell surface (membrane) MPO expression on myeloid cells. The data set is classed as cell-based, human. The method, then:
as §1, §2, §3

Another data set has as its system surface MPO. Put plainly: Detection of membrane MPO activity (surface biotinylation, streptavidin beads, OPD substrate). The data set is classed as cell-based, human. The method, then: Detection of membrane MPO activity. Aliquots of NL and ML were surface biotinylated, lyesed and membrane proteins were precipitated with streptavidin-conjugated agarose beads. The beads were incubated with a chromogenic peroxidase substrate, o-Phenylenediamine dihydrochloride (OPD) (Sigma) and the activity of surface MPO was monitored spectrophotometrically.

Data set [2] concerns mice with surgically-induced myocardial infarct. Briefly: Surgically induced myocardial infarct, echocardiographic ejection fraction. The data set is classed as in vivo. Particulars: 7 days post-MI, mice injected with neuraminidase-treated ML vs untreated ML. From the text:
Adult RAG-2/JAK-3 SCID mice were maintained on a standard mouse chow diet and water ad libitum, and housed in a temperature-controlled environment under an alternating 12-hour light/dark cycle. All animal handling procedures adhered strictly to the approved guidelines of the Institutional Animal Care and Use Committee. Mice paired by weight and sex were distributed in two groups: in one group experimental MI was induced by permanent left anterior descending artery (LAD) ligation, as previously described^67 and another group that underwent open thoracotomy without coronary ligation (sham operated). Within five hours following the surgery, mice from each group were injected via jugular vein either with PBS or different cell types: NL, ML or sialidase-treated ML (4×10^6 cells/mouse). The surgeon who performed the MI procedure and the jugular vein perfusions was blinded to the type of cells/[…] injected in each animal. Echocardiography was performed on all mice before surgery (baseline), at 3 days and 7 days following surgery using an 18 to 38 MHz linear-array transducer with a digital ultrasound system (Vevo 2100 Imaging System, VisualSonics, Toronto, Canada). Standard parasternal long- and short-axis views were obtained during each echocardiographic examination and image measurements were performed offline by an investigator blinded to animal groups and the cell types/PBS injections.

The test system of another data set is MPO-EL. Briefly: MPO immunoprecipitation and western blot with E-selectin-Ig chimera / anti-MPO 3D3. The data set is classed as cell-based, human. As to the method:
G-CSF induces MPO-EL expression in myeloid cells in vitro. To directly assess whether G-CSF stimulates expression of MPO-EL, freshly obtained BM, NL and ML were placed in culture and treated for 48 hours with human G-CSF at 10 ng/ml, a dose reflecting physiologic concentrations of G-CSF following in vivo administration^21,37. MPO was immunoprecipitated from equivalent cell numbers of BM, NL and ML, then resolved on SDS-PAGE and blotted with an anti-MPO Ab which predominantly recognizes the heavy chain (clone 3D3) (FIG. 4d); blots were then stripped and stained with E-Ig (FIG. 4e).
Immunoprecipitations, SDS-PAGE and Western Blotting. Leukocytes were lysed in Buffer A (0.5 mM Tris, pH=8, 150 mM NaCl, 20 μg/ml PMSF, 0.02% sodium azide) supplemented with 1% Triton (Sigma-Aldrich, St. Louis, Mo.) and protease inhibitor cocktail (Roche Diagnostics GmbH, Mannheim, Germany). Cell lysates were precleared with rProtein G Agarose beads (Invitrogen, Carlsbad, Calif.). Immunoprecipitations were performed at 4° C. for 16 h, by incubating the precleared lysates with 2 μg antibody and a fresh batch of agarose beads blocked in advance with 1 mg/ml bovine serum albumin (Sigma-Aldrich, St. Louis, Mo.). After extensive washes, the beads were boiled with sample buffer and the released antigens or cell lysates were resolved on 7.5% Tris-HCl SDS-PAGE (Criterion™ Precast Gel, Bio-Rad Laboratories, Hercules, Calif.). In western blot experiments separated proteins were transferred to Sequi-Blot™PVDF Membrane (Bio-Rad Laboratories, Hercules, Calif.) which was blocked for 2 h with a solution of 5% Non-Fat Milk (LabScientific, Livingston, N.J.). Proteins were detected with E-selectin-Ig chimera or with anti-MPO mAb: clone 2C7 (Abcam) and clone 3D3 (a generous gift from Carrie Rice at Maine Biotechnology Services, ME). Secondary antibodies goat anti-human IgG and goat anti-mouse IgG, HRP-conjugated were detected with Lumi-Light Western Blotting Substrate, (Roche Diagnostics GmbH, Mannheim, Germany).
In vitro G-CSF treatment. […]

The conditions of data set [3]: patients receiving G-CSF; cited from earlier work.

For the molecule `OC[C@H]1NC[C@@H](O)[C@@H](O)[C@@H]1O` [DMJ, deoxymannojirimycin, reference compound], in data set [1] (NA-treated BM cells cultured 48 h with G-CSF in presence of 1 mM DMJ), the “G-CSF-induced expression of HECA-452-reactive glycans” value is on record as “markedly diminished”. For the same molecule, in the data set with membrane MPO (NA-treated BM cells, G-CSF in presence of 1 mM DMJ, 48 h), the “G-CSF-induced MPO expression” value is “significantly attenuated”. The “induction of surface enzymatic activity” value in the data set on surface MPO (DMJ added to G-CSF-treated NL) is “prevented induction of surface enzymatic activity”. Moreover, the G-CSF-induced angiotoxicity result in the data set with TNF-α-stimulated HUVEC (NL treated with G-CSF and DMJ together) was “prevented G-CSF-induced angiotoxicity”.
In the case of “sialidase: Vibrio Cholerae neuraminidase used to cleave terminal sialic acid from sLex [reference compound]”, the MPO expression result in the data set with membrane MPO (BM cells treated with NA, cultured 48 h) is reported as “did not induce MPO expression”. Moreover, the ejection fraction entry in data set [2] is given as “improved ejection fraction”. Also, the endothelial cell death entry with TNF-α-stimulated HUVEC (TNF-α-stimulated HUVEC in absence of leukocytes (baseline)) was “no effect”; in the data set with TNF-α-stimulated HUVEC (co-culture with sialidase-treated ML compared to untreated ML), “significantly decreased”.

B1: Granulocyte colony-stimulating factor (protein, chains of the INN, looked up)
chain: MTPLGPASSLPQSFLLKCLEQVRKIQGDGAALQEKLCATYKLCHPEELVLLGHSLGIPWAPLSSCPSQALQLAGCLSQLHSGLFLYQGLLQALEGISPELGPTLDTLQLDVADFATTIWQQMEELGMAPALQPTQGAMPAFASAFQRRAGGVLVASHLQSFLEVSYRVLRHLAQP
On to B1, for which the HECA452-reactive glycans result in data set [1] (ML treated ex vivo with G-CSF) was “only modest increases”; in data set [1] (NL and BM treated ex vivo with G-CSF) it was “significant increase”. Moreover, the “expression of HECA-452 determinants” value in data set [1] (NA-treated BM cells incubated with G-CSF vs without G-CSF, 48 h) was “marked increased expression”. Moreover, the MPO membrane expression result in the data set on membrane MPO (ML treated ex vivo with G-CSF) is listed as “only modestly increased”. For the same molecule, the “expression of surface MPO” value in the data set with membrane MPO (NL and BM cells treated ex vivo with G-CSF) is reported as “dramatically increased”. Also, the “cell surface MPO enzymatic (peroxidase) activity” value in the data set with surface MPO (NL cultured with 10 ng/ml G-CSF for 48 hours) is “induced surface peroxidase activity”. For the same molecule, the MPO-EL expression entry in the data set on MPO-EL (BM and NL, 10 ng/ml G-CSF, 48 hours) is listed as “markedly induces”; in the data set with MPO-EL (ML, ex vivo exposure to G-CSF), “did not further increase”. Further, the MPO quantity result in the data set with MPO-EL (BM and NL, 10 ng/ml G-CSF, 48 hours, anti-MPO 3D3 blot) is on record as “without significant increase”. In addition, in the data set on TNF-α-stimulated HUVEC (G-CSF-treated ML compared to untreated ML), the angiotoxicity result is “no significant increase in angiotoxicity”. For the same molecule, the “endothelial cell death (cytotoxic effect)” value with TNF-α-stimulated HUVEC (G-CSF-treated NL or BM compared to untreated NL or BM cells) is given as “enhanced cytotoxic effect; also recorded: markedly increased”. In addition, in data set [3], the “cutaneous leukocytoclastic vasculitis, patients affected” value is reported as ≤ 6%.

The values are drawn from patent US8765126B2, “Methods of treating complications and disorders associated with G-CSF administration” (priority 2011, dated 2014).
